How the values were obtained:
[1] = target: Sorbitol dehydrogenase SmoS from Sinorhizobium meliloti 1021 (Sinorhizobium meliloti 1021); experiment: crystal structure
[2] = target: Sorbitol dehydrogenase SmoS from Sinorhizobium meliloti 1021 (Sinorhizobium meliloti 1021); experiment: SEC

stoichiometry N [1]: 4
stoichiometry N [2]: 4
Substance: Sorbitol dehydrogenase SmoS from Sinorhizobium meliloti 1021 (enzyme)
